Laboratory results published in US20030031673A1 (published 2003).

Biological target: T1, prostate specific membrane antigen (human, UniProt Q04609 1-750)
T1 construct: whole, on cells; also called PSMA
Assay: Western blot, prostatic (seminal) fluid
Protocol: To confirm that antibodies E99, J415, J533, and J591 precipitate an identical band to the 7Ell antibody (i.e., PSMA), Western Blot analyses were performed. Seminal plasma (400 μg/lane) or LNCaP lysate were loaded into lanes of 12% SDS-PAGE gels. After electrophoresis, the gels are transferred to nitrocellulose membranes. The membranes were blocked with 5% dry milk/Tris-buffered saline-tween 20 (“TBST”) for 60 min at room temperature. After washing, the membranes were incubated with primary mAb for 60 min at room temperature. After repeat washing, the membranes were incubated with sheep anti-mouse-Ig-peroxidase 1/5000 in 5% dry milk/TEST for 60 min at room temperature. After repeat washing, the membranes were developed using a chemiluminescent tag designated “ECL” (Amersham Life Sciences, International, Arlington Heights, Ill.) according to the manufacturer's directions.

T1 sequence (Q04609 whole entry): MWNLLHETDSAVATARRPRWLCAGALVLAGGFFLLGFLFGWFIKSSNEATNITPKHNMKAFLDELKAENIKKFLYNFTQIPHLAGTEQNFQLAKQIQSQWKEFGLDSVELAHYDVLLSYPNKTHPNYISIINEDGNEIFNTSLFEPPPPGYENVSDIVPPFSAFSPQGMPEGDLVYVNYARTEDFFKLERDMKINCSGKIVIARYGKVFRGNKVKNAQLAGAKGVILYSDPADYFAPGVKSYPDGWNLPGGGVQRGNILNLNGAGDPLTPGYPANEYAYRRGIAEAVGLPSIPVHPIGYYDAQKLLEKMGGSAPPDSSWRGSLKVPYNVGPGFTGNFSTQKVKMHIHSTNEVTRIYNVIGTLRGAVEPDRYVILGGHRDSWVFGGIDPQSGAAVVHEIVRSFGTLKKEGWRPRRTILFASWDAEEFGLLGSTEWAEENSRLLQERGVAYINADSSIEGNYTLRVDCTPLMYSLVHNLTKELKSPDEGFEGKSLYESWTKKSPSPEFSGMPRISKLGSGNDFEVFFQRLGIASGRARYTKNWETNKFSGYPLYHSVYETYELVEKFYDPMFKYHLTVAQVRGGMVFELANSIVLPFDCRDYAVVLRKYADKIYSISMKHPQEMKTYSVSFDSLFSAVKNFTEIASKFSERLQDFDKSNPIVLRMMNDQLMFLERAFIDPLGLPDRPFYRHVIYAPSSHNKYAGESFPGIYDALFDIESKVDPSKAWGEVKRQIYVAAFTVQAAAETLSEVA

binding result: binds
B1: monoclonal antibody J591 (antibody, V domains shown)
VH: EVQLQQSGPELVKPGTSVRISCKTSGYTFTEYTIHWVKQSHGKSLEWIGNINPNNGGTTYNQKFEDKATLTVDKSSSTAYMELRSLTSEDSAVYYCAAGWNFDYWGQGTTLTVSS
VL: DIVMTQSHKFMSTSVGDRVSIICKASQDVGTAVDWYQQKPGQSPKLLIYWASTRHTGVPDRFTGSGSGTDFTLTITNVQSEDLADYFCQQYNSYPLTFGAGTMLDLK
notes: Gold-labeled in the electron microscopy; also called mAb J591; hybridoma ATCC HB-12126
